The source of these data is paper PMC9605988, “Juxtaposition of Bub1 and Cdc20 on phosphorylated Mad1 during catalytic mitotic checkpoint complex assembly” (Nature Communications, 2022).

Square brackets hold non-standard residues; d marks the D form. Peptide text beside a SMILES is read from it. * marks the point of attachment. X1 = N=c1ccc2c(-c3ccc(C(=O)NCCCCCN4C(=O)CC(*)C4=O)cc3C(=O)O)c3ccc(N)c(S(=O)(=O)O)c3oc-2c1S(=O)(=O)O; pT = C[C@@H](OP(=O)(O)O)[C@H](N)C(=O)O; pS = N[C@@H](COP(=O)(O)O)C(=O)O

In test [1] the target is Mad1 CTD (Homo sapiens) (UniProt Q9Y6D9). To be noted: cited from earlier work.
Test [2] deals with T1, pMad1CTD:Cdc20N complex (Homo sapiens, UniProt Q12834+Q9Y6D9).
T1 construct: the C-terminal domain of Mad1 (residue 597–718); made in house; host or cells: Cdc20N: E. coli Rosetta 2 (DE3)
In words: Fluorescence anisotropy: AF488-Bub1CD1 binding to preformed pMad1CTD:Cdc20N complex. The following applies: KD 1.7 vs 0.9 µM for pMad1CTD alone. As to the method: All reactions were completed in a buffer of 25 mM HEPES pH 7.75, 1 mM TCEP, 100 mM NaCl, 0.05% (v/v) Tween-20. […] Measurements were performed with a PheraStar plate reader FSX plate reader (BMG Labtech) using an optic module for λex = 485 nm, λem = 520 nm. Reactions were carried out in a total volume of 40 μl at 25 °C in a black, flat-bottom, non-binding surface 384-well plate (Corning). All experiments were performed as technical triplicates and data were analysed in PRISM 9.3.1 (GraphPad Software).

For test [3], the system named is pMad1CTD (Mad1CTD pT716). In words: SEC-MALS, Cdc20N with pMad1CTD. The test is classed as binding, human. To be noted: 1:1.2 ratio Mad1CTD dimer to Cdc20N. As to the method:
(§1) Size-exclusion chromatography coupled with multi-angle static light scattering (SEC-MALS), was performed using an Agilent 1200 series LC system with an online Dawn Helios ii system (Wyatt) equipped with a QELS + module (Wyatt) and an Optilab rEX differential refractive index detector (Wyatt). About 100 μl purified protein at ~3.0 mg/ml was auto-injected onto Superdex 75 or a Superdex 200 Increase 10/300 GL column (GE Healthcare) and run at 0.5 ml/min. The molecular masses were analysed with ASTRA 7.3.0.11 (Wyatt). Data were plotted using Prism 8.4.3 (GraphPad Software, Inc). Purified Cdc20^N and Cdc20^N mutants were incubated with Mad1^CTD wild-type or mutants at a 1:1.2 ratio of Mad1^CTD dimer to Cdc20^N.

The subject of test [4] is Mad1CTD R617E/K619D mutant. Kind of test: SEC-MALS, Cdc20N with Mad1CTD R617E/K619D. The test is classed as binding, human. The following applies: 1:1.2 ratio Mad1CTD dimer to Cdc20N. As to the method:
as §1

The subject of test [5] is AF488-Bub1CD1:pMad1CTD complex. Kind of test: Fluorescence anisotropy: Cdc20N titrated into preformed AF488-Bub1CD1:pMad1CTD complex. The test is classed as binding, human. The following applies: at the concentrations used in the assay.

T1 sequence (Q9Y6D9 597-718): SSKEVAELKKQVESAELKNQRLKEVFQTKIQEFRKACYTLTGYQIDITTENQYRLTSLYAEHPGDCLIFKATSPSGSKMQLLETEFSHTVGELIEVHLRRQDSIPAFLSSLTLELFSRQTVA
T1 sequence (Q12834 1-73 partner): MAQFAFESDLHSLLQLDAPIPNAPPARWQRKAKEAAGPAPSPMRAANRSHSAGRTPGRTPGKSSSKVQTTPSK

Bub1 CD1 (from UniProt O43683): in test [1], the Kd is 2700 nM.

With `CC[C@H](C)[C@H](NC(=O)[C@H](Cc1ccccc1)NC(=O)CNC(=O)[C@H](CC(C)C)NC(=O)[C@H](C)NC(=O)[C@H](CCC(=O)O)NC(=O)[C@H](CCCCN)NC(=O)[C@@H](NC(=O)[C@H](Cc1c[nH]cn1)NC(=O)[C@@H](NC(=O)[C@@H](NC(=O)[C@@H]1CCCN1C(=O)[C@H](COP(=O)(O)O)NC(=O)[C@@H]1CCCN1C(=O)[C@H](CCC(N)=O)NC(=O)[C@@H](NC(=O)[C@H](CCCCN)NC(=O)[C@H](Cc1c[nH]c2ccccc12)NC(=O)[C@@H](N)CSC1CC(=O)N(CCCCCNC(=O)c2ccc(-c3c4ccc(=N)c(S(=O)(=O)O)c-4oc4c(S(=O)(=O)O)c(N)ccc34)c(C(=O)O)c2)C1=O)C(C)C)[C@@H](C)OP(=O)(O)O)C(C)C)[C@@H](C)O)C(=O)N[C@@H](CCSC)C(=O)N[C@@H](CC(N)=O)C(=O)N[C@@H](CCSC)C(=O)N[C@@H](Cc1ccccc1)C(=O)N[C@@H](CCC(N)=O)C(=O)N[C@@H](C)C(=O)N1CCC[C@H]1C(=O)N[C@H](C(=O)N[C@@H](CO)C(=O)O)[C@@H](C)O` (stereo partly drawn) [AF488-Bub1^CD1] (H-C(X1)WKVQP[pS]P[pT]VHTKEALGFIMNMFQAPTS-OH; N-terminus and C-terminus assumed), the figures for the “cooperativity of Bub1CD1 and Cdc20N binding to pMad1CTD” value in test [2] and in test [2] (listed as AF488-Bub1CD1) were “unlikely to be cooperative” and “no cooperativity”, respectively.

B1: Cdc20^N E7R/D9K: Cdc20N E7R/D9K mutant (protein)
chain: MAQFAFRSKLHSLLQLDAPIPNAPPARWQRKAKEAAGPAPSPMRAANRSHSAGRTPGRTPGKSSSKVQTTPSK
modifications: left off: His6, N-terminal, state not stated | MBP, N-terminal, state not stated
notes: Cdc20N E7R/D9K mutant
Turning to B1, the “binding by SEC-MALS” value is given as “could no longer be observed” in test [3] and “did not show an interaction” in test [4]. Besides, in test [5], the “interaction with pMad1CTD by fluorescence anisotropy” value is listed as “could no longer be observed”.
